The data set concerns the molecule itself. Nature of the data set: SEC.

B1: Recombinant PCNA2 protein of Arabidopsis thaliana (AtPCNA2) (natural protein, UniProt Q9ZW35 1-264, looked up)
chain: MLELRLVQGSLLKKVLEAVKDLVNDANFDCSTTGFSLQAMDSSHVALVSLLLRSEGFEHYRCDRNLSMGMNLGNMSKMLKCAGNDDIITIKADDGSDTVTFMFESPTQDKIADFEMKLMDIDSEHLGIPDAEYHSIVRMPSGEFSRICKDLSSIGDTVVISVTKEGVKFSTAGDIGTANIVLRQNTTVDKPEDAIVIEMNEPVSLSFALRYMNSFTKATPLSETVTISLSSELPVVVEYKVAEMGYIRYYLAPKIEEEEDTKPE
Take B1: the binding result is “binds”.

Source of the values: PMC2814116 (Journal of Experimental Botany, 2009).
